Biological target: the molecule itself
Assay: AUC

| Protein | binding result |
| --- | --- |
| Un-tagged Gal80 protein (natural protein, Saccharomyces cerevisiae, UniProt P04387 1-435, looked up) MDYNKRSSVSTVPNAAPIRVGFVGLNAAKGWAIKTHYPAILQLSSQFQITALYSPKIETSIATIQRLKLSNATAFPTLESFASSSTIDMIVIAIQVASHYEVVMPLLEFSKNNPNLKYLFVEWALACSLDQAESIYKAAAERGVQTIISLQGRKSPYILRAKELISQGYIGDINSIEIAGNGGWYGYERPVKSPKYIYEIGNGVDLVTTTFGHTIDILQYMTSSYFSRINAMVFNNIPEQELIDERGNRLGQRVPKTVPDHLLFQGTLLNGNVPVSCSFKGGKPTKKFTKNLVIDIHGTKGDLKLEGDAGFAEISNLVLYYSGTRANDFPLANGQQAPLDPGYDAGKEIMEVYHLRNYNAIVGNIHRLYQSISDFHFNTKKIPELPSQFVMQGFDFEGFPTLMDALILHRLIESVYKSNMMGSTLNVSNISHYSL | binds |
| Un-tagged Gal3 protein (natural protein, Saccharomyces cerevisiae, UniProt P13045 1-520, looked up) MNTNVPIFSSPVRDLPRSFEQKHLAVVDAFFQTYHVKPDFIARSPGRVNLIGEHIDYCDFSVLPLAIDVDMLCAVKILDEKNPSITLTNADPKFAQRKFDLPLDGSYMAIDPSVSEWSNYFKCGLHVAHSYLKKIAPERFNNTPLVGAQIFCQSDIPTGGGLSSAFTCAAALATIRANMGKNFDISKKDLTRITAVAEHYVGVNNGGMDQATSVYGEEDHALYVEFRPKLKATPFKFPQLKNHEISFVIANTLVKSNKFETAPTNYNLRVIEVTVAANALATRYSVALPSHKDNSNSERGNLRDFMDAYYARYENQAQPWNGDIGTGIERLLKMLQLVEESFSRKKSGFTVHEASTALNCSREEFTRDYLTTFPVRFQVLKLYQRAKHVYSESLRVLKALKMMTSATFHTDEDFFTDFGRLMNESQASCDKLYECSCIETNQICSIALANGSFGSRLTGAGWGGCTIHLVPSGANGNVEQVRKALIEKFYNVRYPDLTDEELKDAIIVSKPALGTCLYEQ | binds |

— publication PMC3090473 (Methods (San Diego, Calif.), 2010)
